The chains are these.
B1: Pistol ribozyme (parent)
chain: GGGUCGUUGUUCCAUAAUCGCGUGGAUAUGGCACGCAAGUUUCUACCGGGCACCGUAAAUGUCCGACUGGAGCCGUUCGGGCGGCUAUAAACAGACCUCAGGCCCGAAGCGUGGCGGCACCUGCCGCCGGUGGUAAAAAAGAUCGGAAGAGCACACGUCU

The data set covers variants of B1. The data set is described as follows: aptazyme ON/OFF ratio, guanine; higher = stronger switching; co-transcriptional cleavage with and without guanine.
Take U7A U8C G9C U10C U11A C12G C13A: the “aptazyme ON/OFF ratio” value stood at 1.03.

With U7A U8C G9C U10C U11A C12G C13U, the “aptazyme ON/OFF ratio” value was determined as 1.1.

For the variant U7A U8C G9C U10C U11A C12G C13G, the “aptazyme ON/OFF ratio” value is 1.08.

As for U7A U8C G9C U10A U11G, the “aptazyme ON/OFF ratio” value turned out to be 1.11.

For U7A U8C G9C U10A U11C, the “aptazyme ON/OFF ratio” value came to 1.08.

As for U7A U8C G9C U10A U11A, the “aptazyme ON/OFF ratio” value is 1.07.

U7A U8C G9C U10A U11A C13U: the “aptazyme ON/OFF ratio” value was determined as 1.13.

In the case of U7A U8C G9C U10A U11A C13A, the “aptazyme ON/OFF ratio” value was determined as 1.07.

On to U7A U8C G9C U10A U11A C13G, for which the “aptazyme ON/OFF ratio” value was found to be 1.06.

For the variant U7A U8C G9C U10C U11C C12U C13A, the “aptazyme ON/OFF ratio” value was determined as 1.02.

In the case of U7A U8C G9C U10C U11C C12U C13G, the “aptazyme ON/OFF ratio” value is 1.02.

For U7A U8C G9C U10C U11C C12U C13U, the “aptazyme ON/OFF ratio” value was 0.988.

On to U7A U8C G9C U10C U11C C12G C13A, for which the “aptazyme ON/OFF ratio” value is 1.02.

As to U7A U8C G9C U10C U11C C12G C13U, the “aptazyme ON/OFF ratio” value came out at 1.07.

Consider U7A U8C G9C U10C U11C C12G C13G, for which the “aptazyme ON/OFF ratio” value stood at 1.09.

Regarding U7A U8C G9A U11C C12U C13A, the “aptazyme ON/OFF ratio” value was 1.22.

Regarding U7A U8C G9A U11C C12U C13G, the “aptazyme ON/OFF ratio” value came out at 1.16.

For U7A U8C G9A U11C C12U C13U, the “aptazyme ON/OFF ratio” value came out at 1.19.

As to U7A U8C G9A U11G C13U, the “aptazyme ON/OFF ratio” value is 1.22.

Take U7A U8C G9A U11G C13A: the “aptazyme ON/OFF ratio” value worked out at 1.27.

Regarding U7A U8C G9A U11G C13G, the “aptazyme ON/OFF ratio” value was determined as 1.31.

In the case of U7A U8C G9C U10G C12G C13A, the “aptazyme ON/OFF ratio” value turned out to be 1.05.

Take U7A U8C G9C U10G C12G C13G: the “aptazyme ON/OFF ratio” value came out at 1.11.

Consider U7A U8C G9C U10G C12G C13U, for which the “aptazyme ON/OFF ratio” value amounted to 1.13.

As for U7A U8C G9C U10G C12U, the “aptazyme ON/OFF ratio” value amounted to 1.02.

For the variant U7A U8C G9C U10G C12A, the “aptazyme ON/OFF ratio” value is 1.07.

Regarding U7A U8C G9C U10G C12G, the “aptazyme ON/OFF ratio” value amounted to 1.12.

Take U7A U8C G9C U10A U11A C12A C13U: the “aptazyme ON/OFF ratio” value was 1.05.

For U7A U8C G9C U10A U11A C12A C13G, the “aptazyme ON/OFF ratio” value was found to be 1.08.

Take U7A U8C G9C U10A U11A C12A C13A: the “aptazyme ON/OFF ratio” value was 1.05.

For the variant U7A U8C G9A U11G C12U C13A, the “aptazyme ON/OFF ratio” value is 1.28.

Turning to U7A U8C G9A U11G C12U C13U, the “aptazyme ON/OFF ratio” value was determined as 1.32.

On to U7A U8C G9A U11G C12U C13G, for which the “aptazyme ON/OFF ratio” value came out at 1.22.

In the case of U7A U8C G9C U10G U11C C12G C13A, the “aptazyme ON/OFF ratio” value was found to be 1.18.

Regarding U7A U8C G9C U10G U11C C12G C13U, the “aptazyme ON/OFF ratio” value was 1.12.

Consider U7A U8C G9C U10G U11C C12G C13G, for which the “aptazyme ON/OFF ratio” value amounted to 1.18.

Turning to U7A U8C G9U U10A C12A C13U, the “aptazyme ON/OFF ratio” value is 1.18.

As for U7A U8C G9U U10A C12A C13G, the “aptazyme ON/OFF ratio” value was found to be 1.15.

For U7A U8C G9U U10A C12A C13A, the “aptazyme ON/OFF ratio” value came out at 1.12.

For the variant U7A U8C G9C U10C U11A C12U, the “aptazyme ON/OFF ratio” value came to 1.03.

For the variant U7A U8C G9C U10C U11A C12A, the “aptazyme ON/OFF ratio” value amounted to 1.07.

U7A U8C G9C U10C U11A C12G: the “aptazyme ON/OFF ratio” value turned out to be 1.02.

As to U7A U8C G9C U11G C12G C13G, the “aptazyme ON/OFF ratio” value amounted to 1.12.

As for U7A U8C G9C U11G C12G C13A, the “aptazyme ON/OFF ratio” value worked out at 1.12.

As to U7A U8C G9C U11G C12G C13U, the “aptazyme ON/OFF ratio” value was determined as 1.11.

For U7A U8C G9A U11C C12A C13U, the “aptazyme ON/OFF ratio” value amounted to 1.23.

As for U7A U8C G9A U11C C12A C13G, the “aptazyme ON/OFF ratio” value was found to be 1.16.

Regarding U7A U8C G9A U11C C12A C13A, the “aptazyme ON/OFF ratio” value came to 1.19.

For U7A U8C G9C U10C U11G C12U C13A, the “aptazyme ON/OFF ratio” value was 1.09.

As for U7A U8C G9C U10C U11G C12U C13G, the “aptazyme ON/OFF ratio” value was determined as 1.11.

As to U7A U8C G9C U10C U11G C12U C13U, the “aptazyme ON/OFF ratio” value was 1.09.

With U7A U8C G9C U10G U11G C13A, the “aptazyme ON/OFF ratio” value amounted to 1.12.

With U7A U8C G9C U10G U11G C13G, the “aptazyme ON/OFF ratio” value was 1.08.

In the case of U7A U8C G9C U10G U11G C13U, the “aptazyme ON/OFF ratio” value worked out at 1.09.

U7A U8C G9C U10A U11G C13G: the “aptazyme ON/OFF ratio” value came to 1.12.

Consider U7A U8C G9C U10A U11G C13U, for which the “aptazyme ON/OFF ratio” value was found to be 1.09.

With U7A U8C G9C U10A U11G C13A, the “aptazyme ON/OFF ratio” value was 1.1.

U7A U8C G9C U10G U11A C13A: the “aptazyme ON/OFF ratio” value was 1.05.

For U7A U8C G9C U10G U11A C13G, the “aptazyme ON/OFF ratio” value was determined as 1.1.

With U7A U8C G9C U10G U11A C13U, the “aptazyme ON/OFF ratio” value was found to be 1.02.

Take U7A U8C G9C U11G C12A C13A: the “aptazyme ON/OFF ratio” value came out at 1.11.

U7A U8C G9C U11G C12A C13G: the “aptazyme ON/OFF ratio” value was determined as 1.31.

Take U7A U8C G9C U11G C12A C13U: the “aptazyme ON/OFF ratio” value worked out at 1.11.

Regarding U7A U8C G9C U11C C12G C13G, the “aptazyme ON/OFF ratio” value was 1.13.

Regarding U7A U8C G9C U11C C12G C13U, the “aptazyme ON/OFF ratio” value came out at 1.09.

For U7A U8C G9C U11C C12G C13A, the “aptazyme ON/OFF ratio” value is 1.07.

As to U7A U8C G9C U10G U11C C12U, the “aptazyme ON/OFF ratio” value amounted to 1.09.

Regarding U7A U8C G9C U10G U11C C12A, the “aptazyme ON/OFF ratio” value worked out at 1.1.

For U7A U8C G9C U10G U11C C12G, the “aptazyme ON/OFF ratio” value was determined as 1.21.

With U7A U8C G9C U10C U11G, the “aptazyme ON/OFF ratio” value turned out to be 1.03.

For the variant U7A U8C G9C U10C U11A, the “aptazyme ON/OFF ratio” value stood at 1.03.

For U7A U8C G9C U10C U11C, the “aptazyme ON/OFF ratio” value was determined as 0.989.

Consider U7A U8C G9C U10A U11G C12G C13A, for which the “aptazyme ON/OFF ratio” value was found to be 1.08.

For U7A U8C G9C U10A U11G C12G C13G, the “aptazyme ON/OFF ratio” value came out at 1.13.

U7A U8C G9C U10A U11G C12G C13U: the “aptazyme ON/OFF ratio” value was found to be 1.14.

In the case of U7A U8C G9C U10A C12A C13A, the “aptazyme ON/OFF ratio” value turned out to be 1.

Turning to U7A U8C G9C U10A C12A C13G, the “aptazyme ON/OFF ratio” value was determined as 1.08.

For the variant U7A U8C G9C U10A C12A C13U, the “aptazyme ON/OFF ratio” value is 1.09.

U7A U8C G9C U10G U11A C12G C13A: the “aptazyme ON/OFF ratio” value came out at 1.02.

For U7A U8C G9C U10G U11A C12G C13G, the “aptazyme ON/OFF ratio” value is 1.17.

Take U7A U8C G9C U10G U11A C12G C13U: the “aptazyme ON/OFF ratio” value is 1.08.

As to U7A U8C G9C U10C U11G C12A C13G, the “aptazyme ON/OFF ratio” value turned out to be 1.07.

U7A U8C G9C U10C U11G C12A C13A: the “aptazyme ON/OFF ratio” value is 1.18.

For the origin of these results see the RNAGym collection of RNA variant scans (doi:10.1021/acssynbio.7b00057).
